Experiments:
[1] = target: full-length human tissue factor with C-terminal RGS-His6 tag, stably expressed on CHO-K1 cells (human) (UniProt P13726); assay: flow cytometry (FACScan) on stable CHO clone #TF34 expressing full-length hTF; first antibody 10 µg/ml, FITC-labeled goat anti-mouse IgG 1:50
[2] = target: full-length human tissue factor with C-terminal RGS-His6 tag, stably expressed on CHO-K1 cells (human) (UniProt P13726); assay: flow cytometry (FACScan) on stable CHO clone #TF48 expressing full-length hTF; first antibody 10 µg/ml, FITC-labeled goat anti-mouse IgG 1:50

Chain of full-length human tissue factor with C-terminal RGS-His6 tag, stably expressed on CHO-K1 cells (human) (P13726 other isoform, or with tags, fused parts or gaps): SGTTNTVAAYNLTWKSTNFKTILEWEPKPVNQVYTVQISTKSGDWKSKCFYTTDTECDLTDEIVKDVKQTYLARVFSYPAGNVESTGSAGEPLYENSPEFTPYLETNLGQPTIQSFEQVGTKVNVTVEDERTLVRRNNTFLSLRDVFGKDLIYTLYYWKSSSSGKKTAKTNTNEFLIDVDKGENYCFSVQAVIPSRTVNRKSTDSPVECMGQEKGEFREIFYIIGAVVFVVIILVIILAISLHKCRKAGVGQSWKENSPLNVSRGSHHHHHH

mouse anti-human TF mAb (Calbiochem, Cat. # 612161) (antibody)
% Total in marker M1 (negative gate) [1]: 0.42% | % Total in marker M2 (positive gate) [1]: 99.4% | Geo Mean (FL1-H), marker All [1]: 262 | Geo Mean (FL1-H), marker M1 [1]: 8.16 | Geo Mean (FL1-H), marker M2 [1]: 267 | % Total in marker M1 (negative gate) [2]: 0.99% | % Total in marker M2 (positive gate) [2]: 98.9% | Geo Mean (FL1-H), marker All [2]: 168 | Geo Mean (FL1-H), marker M1 [2]: 7.54 | Geo Mean (FL1-H), marker M2 [2]: 174
